# Test: yeast display, Sf9 membrane polyspecificity reagent, FACS + sequencing; frameworks hold sequencing errors
# Procedure, shortened: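 A nanobody's polyreactivity label depends on the gate it was sorted from. Yeast display cells were stained with 10% biotinylated, detergent-solubilized Sf9 membrane reagent for 1 hour at 4 °C, enriched on streptavidin microbeads and sorted by FACS. The low and high (top ~1%) gates were set on anti-HA fluorescence for expression and streptavidin fluorescence for reagent binding.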
row,Sequence,polyreactivity (PSR sort gate)
1,QVQLVESAGGLVQAGGSLRLSCAASGSTFAYNVMGWYRQAPGKERELVASISSSSGSTYYADSVKGRFTISRDNAKNTVYLQMNSLKPEDTAVYYCATYPAYTEYDYWGQGTQVTVSS,high polyreactivity
2,QVQLVESAGGLVQAGGSLRLSCAASGSTFPWNAMGWDRQAPGKERELVAAISKSGGRTYYADSVKGRFTISRDNAKNTVYLQMNSLKPVDTAVYYCAKRYALSVYYRLYDYWGQGTQVTVSS,high polyreactivity
3,QVQLVESAGGLVQAGGSLRLSCAASGSTFTLYAMGWYRQAPGKERELVAAISWSGDSTYYADSVKGRFTISRDNAKNTVYLQMNSLKPEDTAVYYCAAENVYGYDYWGQGTQVTESS,high polyreactivity
4,QVQLVESAGGLVQAGGSLRLSCAASGSTFVGYAMGWYRQAPGKERELVAAISGSGTSTYYADSVKGRFTISRDNAKNTVYLQMNSLKPEDTAVYYCNADPIFVYSSYNYWGQGTQVTVSS,low polyreactivity
5,QVQLVESAGGLVQAGGSLRLSCAASGSTFYAYVMGWYRPAPGKARELVAAISKGGGSTYYADSVKGRFTISRDNAKNTVYLQMNSLKPEDTAVYYCAAYASYSNYRKYNYWGQGTQVTVSS,high polyreactivity
6,QVQLVESAGGLVQAGGSLRLSCAASGSTIYPNAMGWYRQAPGKERELVAVISSGGSTYYADSVKGRFTISRDNAKNTVYLQMNSLKPEDTAVYYCADERYYFPRSYRYGYWGQGTQVTVSS,low polyreactivity
7,QVQLVESAGGLVQAGGSLRLSCAASGSTLYPYDMGWYRQAPGKERELVAAIDSGGSTNYADSVKGRFTISRDNAKNTVYLQMNSLKPEDTAVYYCAADASGENDYWGQGTQVTVSS,low polyreactivity
8,QVQLVESAGGLVQAGGSLRLSCAASGTILWWNAMGRYRPAPGKERELVADITSDGTYADSVKGRFTISRDNAKNTVYLQMNSLKPEDTAVYYCAAVDAYGPGLNGYDYWGQGTQVTVSS,low polyreactivity
9,QVQLVESAGGLVQAGGSLRLSCAASRRTFARYAIGRYRQAPGQERELVAALSRSGTCTYYADSVLGRFTISRDNAKNTVYLQKNSLKPEDCAVYYCAVDAYLGHYDYWGQGTQVTVSS,high polyreactivity
10,QVQLVESAGGLVQAGGSLRLSCAASVSTLEYNAMGWYRQAPGNERELVAAITASGGSTYYADSVKGRFTISRDNAKKTVYLQMNSLKPDDTAVYYCATEANQRTLKDTVKDYDYWGQGTQVTVSS,low polyreactivity
11,QVQLVESAGGLVQAGGSLRLSCDASGYTFNYNTMGCYRQARGKERELVSAINTSGSTDYADSVKGRFTISRDNAKNTDYLLMNRLKPEDTAVYYCAVRVAYKYNYWGQGTQETVSS,high polyreactivity
12,QVQLVESAGGLVQAGGSLRLTCAASGNIFRRYAMGWYRQAPGKERELVAAISWRSGNTYYADSVKGRFTISRDNAKNTVYLQMNSLKPEDTAVYYCNKDYWWIPQLPHYNYWGQGTQVTVSS,low polyreactivity
13,QVQLVESAGGLVQAGGSLRVICAASASTSVHNAMGWYRQAPGKERELVAAITSDGSTNYADSVKGRFTISRDNEKNTVYLLMYSLEPEDTAFYYCAALGWTYYVGYVSYSYGYWGQGTQVTVSS,low polyreactivity
14,QVQLVESAGGLVQAGGSLSLSCAASGFNFKGYAMGSYRQAPGKERELVAAISSSGTSTYYADSVKGRFTISRDNEKNTVYLQMNSLKPEDTAVYYCARVSKRTWSGYYYWGQGTQVTVSS,high polyreactivity
15,QVQLVESAGGLVQAGGSLSLSCAASGITFIPNPMGWYRQAPGKERELVAAISISGGRTYYADSVKGRFTISRDNAKNTVYLQMNSLKPEDTAVYYCAADRADFFVIRTIDPYDYWGQGTQVTVSS,low polyreactivity
16,QVQLVESAGGLVQAGGSLSLSCAASGLTFHYYHMGWYRQATGKETELVAAITSSGGRTYYADSVKGRFTISRDNEKNTVFLQMNSLKPEDTAVYFCAADIYPDWIYLLYGYWGQGTQVTVSS,low polyreactivity

row,Sequence,polyreactivity (PSR sort gate)
1,QVQLVESAGGLVQAGGSLSLSCAASGRTFSYYAMGWYRHARGKERELVAAISRRGGSTYYADSVKGRLTISRDNAKNTVYLQMISLKPEDTAVDYCNARGRSTVGGGFYYWGLGTQVTVSS,high polyreactivity
2,QVQLVESAGGLVQAGGSLSLSCAASGSTFYKYTMGWDRQAPGKERELVAAISGSGTTTYYADSVKGRFTISRDNAKNTVYLQMNSLKPEDTAVYYCAAHSRSSSGYHWGQGTQVTVSS,high polyreactivity
3,QVQLVESAGGLVQAVGSLRLSCDASGSTFSGNDMGWYRQAPGKERELVAAITSSGGSTYYADSVKGRFTISRDNAKNTVYLQMNSLKPEDTAVYYCAAKSRRTRRSYYWGQGTQVTVSS,high polyreactivity
4,QVQLVESAGGLVQEGGSLRVSCAASGRTFGRYAMGRYRQAPGKEREMVAAITVGGGSTYYADSVKGRFTISRDTAKNTVYLQMNSLKPEDTAVYYCNALHTYTYRYDYYYWGQGTQVTVSS,high polyreactivity
5,QVQLVESAGRLVQAGGSLRLSCAASGFTFRKNAMGWYRQAPGKERELVAAITFSGGSTYYADSVKGRFTISRDNAKNTVYLQMNSLKPEDTAVYFCGTRYYYHYPRKHIYNYWGQGTQVTVSS,high polyreactivity
6,QVQLVESAGRLVQAGGSLRLSCSASGSIFDWYAMGWYRQEPGKERELVAAISWSGGSTYYADSVKGRFTISRDNAKNTVYLQMNSLKPEDSAVYYCYAVFLYFNDDKFDNWGQGTQVTVSS,low polyreactivity
7,QVQLVESAGVLVQAGGRLRLICAACGSIFDYYSLGWYRQAPGKEREMVDTISGGGGTTYYADSVKGRFTISRDNAKNSVYVHMNSLKPEDTAVYYCAADSLGYKYWGQGTQVTVSS,low polyreactivity
8,QVQLVESAVGLVQAGGSLRLSCAASGGIIAYNAMGWYRQAPGKERELVAAISSSGGRTYYADSVKGRFTISRDNAKNTVYLQMNSLKPEDTAVYYCAADITFRYYYWGQGTQVTVSS,high polyreactivity
9,QVQLVESCGCLVQAGGSLRLSCAAYGITFGRNTMVWDRQAPGKERELVAAIDSGGNTYAVSVKGRFTISRDNAKNTVYLQMISLKPEDTAVYYCAVDGGEFSSYGYWGQGTQVTVSS,low polyreactivity
10,QVQLVESCGGIVQAGVSLRLSCAASGSIFGIYAMGWYRQAPGKERELVAAIDSSGTSTYYADSVKGRFTISRDNEKNTVYLQMNSLKPEDTAVNSSAAYHRISKNNYWGQGTEVTVSS,low polyreactivity
11,QVQLVESCGGLDQAGGSLRLSCAASGSMFGYAMGWYRQAPGKERELVASTTYADSVKGRFTISRDNAKNTVYLQMNSLKPEDTAVYDCAADDWYTVEMEYWGQGTLVTVSS,low polyreactivity
12,QVQLVESCGGLVHAGCSLRLSCAASGSTFTFYAMGWYRQAPGKERVLVATISWSTGTTYYADSVKGRFTISRDSAKNTVYLEMNSMKPEDTAVYYCADAWSYRFDYWGQGTQVTVSS,low polyreactivity
13,QVQLVESCGGLVHAGGSLRLSCAASGRSFYRYAMGWYRKAPGKERELVAAISSGGSTYYADSVKGRFTISRDNANNTDYLQMNSLKPEDTAVYYCNADYGRRIHMDYWGQGTQVTVSS,low polyreactivity
14,QVQLVESCGGLVQAGASLRLSCAASGSTFKYYTMGWYIQSPGKERELVAAISFSGARTYYADSVKGRFTISRDNAKNNVYLQMNSLKPEDTAVYYCAKRATWYTVPREGYWGQGTLVTVSS,high polyreactivity
15,QVQLVESCGGLVQAGGSLRLICAASGRTFRSYTMGWYRQAPGKERELVAAISYNCGSTYYADSVKGRFTISRDNAKNTVYLQMNSLKPEDTPVYYCAVYTIYGFYYWGQGTQVSVSS,high polyreactivity
16,QVQLVESCGGLVQAGGSLRLICDDSGNTFNRYAMGWYRQAPGKERELVADITSGGRTYYAYSVKGRFTISRDNAKNTVYLQMNSVKPVDTAVYYCAGEWWDLGNFYWSYRYDYWGQCTQVTVSS,high polyreactivity
